Measured values published in IntAct's records for PubMed 21828050.

B1: Kelch-like protein 7 (Homo sapiens), Q8IXQ5 (parent)
chain: MAASGVEKSSKKKTEKKLAAREEAKLLAGFMGVMNNMRKQKTLCDVILMVQERKIPAHRVVLAAASHFFNLMFTTNMLESKSFEVELKDAEPDIIEQLVEFAYTARISVNSNNVQSLLDAANQYQIEPVKKMCVDFLKEQVDASNCLGISVLAECLDCPELKATADDFIHQHFTEVYKTDEFLQLDVKRVTHLLNQDTLTVRAEDQVYDAAVRWLKYDEPNRQPFMVDILAKVRFPLISKNFLSKTVQAEPLIQDNPECLKMVISGMRYHLLSPEDREELVDGTRPRRKKHDYRIALFGGSQPQSCRYFNPKDYSWTDIRCPFEKRRDAACVFWDNVVYILGGSQLFPIKRMDCYNVVKDSWYSKLGPPTPRDSLAACAAEGKIYTSGGSEVGNSALYLFECYDTRTESWHTKPSMLTQRCSHGMVEANGLIYVCGGSLGNNVSGRVLNSCEVYDPATETWTELCPMIEARKNHGLVFVKDKIFAVGGQNGLGGLDNVEYYDIKLNEWKMVSPMPWKGVTVKCAAVGSIVYVLAGFQGVGRLGHILEYNTETDKWVANSKVRAFPVTSCLICVVDTCGANEETLET

Variants of: B1
Settings: with cul3_human CUL3, Q13618

effect of a mutation on the interaction	Variant
disrupting interaction	A153T
disrupting interaction	A153V

Variants of: B1
Settings: with cul3_human CUL3, Q13618
Remark: another data set of the same source

effect of a mutation on the interaction	Variant
decreasing interaction	A153V
